According to PMC5740215, “Functional characterization of a novel somatic oncogenic mutation of PIK3CB” (Signal Transduction and Targeted Therapy, 2017):
Positions count from the first letter of the chain named. In names and notes the source's numbering stands.

Substrate: Nc1ncnc2c1ncn2[C@@H]1O[C@H](COP(=O)(O)OP(=O)(O)OP(=O)(O)O)[C@@H](O)[C@H]1O
Assay: Km [ATP] by ADP-Glo lipid kinase assay with PIP2:PS substrate
Assay type: biochemical, Homo sapiens
Details: MgCl2

B1: p110β (Homo sapiens) (protein)
chain: MCFSFIMPPAMADILDIWAVDSQIASDGSIPVDFLLPTGIYIQLEVPREATISYIKQMLWKQVHNYPMFNLLMDIDSYMFACVNQTAVYEELEDETRRLCDVRPFLPVLKLVTRSCDPGEKLDSKIGVLIGKGLHEFDSLKDPEVNEFRRKMRKFSEEKILSLVGLSWMDWLKQTYPPEHEPSIPENLEDKLYGGKLIVAVHFENCQDVFSFQVSPNMNPIKVNELAIQKRLTIHGKEDEVSPYDYVLQVSGRVEYVFGDHPLIQFQYIRNCVMNRALPHFILVECCKIKKMYEQEMIAIEAAINRNSSNLPLPLPPKKTRIISHVWENNNPFQIVLVKGNKLNTEETVKVHVRAGLFHGTELLCKTIVSSEVSGKNDHIWNEPLEFDINICDLPRMARLCFAVYAVLDKVKTKKSTKTINPSKYQTIRKAGKVHYPVAWVNTMVFDFKGQLRTGDIILHSWSSFPDELEEMLNPMGTVQTNPYTENATALHVKFPENKKQPYYYPPFDKIIEKAAEIASSDSANVSSRGGKKFLPVLKEILDRDPLSQLCENEMDLIWTLRQDCREIFPQSLPKLLLSIKWNKLEDVAQLQALLQIWPKLPPREALELLDFNYPDQYVREYAVGCLRQMSDEELSQYLLQLVQVLKYEPFLDCALSRFLLERALGNRRIGQFLFWHLRSEVHIPAVSVQFGVILEAYCRGSVGHMKVLSKQVEALNKLKTLNSLIKLNAVKLNRAKGKEAMHTCLKQSAYREALSDLQSPLNPCVILSELYVEKCKYMDSKMKPLWLVYNNKVFGEDSVGVIFKNGDDLRQDMLTLQMLRLMDLLWKEAGLDLRMLPYGCLATGDRSGLIEVVSTSETIADIQLNSSNVAAAAAFNKDALLNWLKEYNSGDDLDRAIEEFTLSCAGYCVASYVLGIGDRHSDNIMVKKTGQLFHIDFGHILGNFKSKFGIKRERVPFILTYDFIHVIQQGKTGNTEKFGRFRQCCEDAYLILRRHGNLFITLFALMLTAGLPELTSVKDIQYLKDSLALGKSEEEALKQFKQKFDEALRESWTTKVNWMAHTVRKDYRS
notes: GST-His6-p110β+myc-p85α; with p85α (PIK3R1)
Km: 507.5 ± 66.3 µM
Vmax: 1.13 µmol/min/mg

B2: p110β^E1051K (Homo sapiens; E1051K) (protein)
chain: B1 chain with E1051K
notes: as for B1
Km: 314.3 ± 36.8 µM
Vmax: 1.4 µmol/min/mg
